Assay [1] has as its target T1, MC3R (Mus musculus, UniProt P33033).
T1 construct: from tissue; host or cells: living mice (C57/BL6J background), central nervous system / hypothalamus
The assay can be described thus: Elevated plus maze. The assay is classed as in vivo, mice. As for the experimental part: (§1) Anxiety behavioral assays were performed in the following order with 2-4 days separated between each anxiety assay: elevated plus maze, open field test, novelty suppressed feeding test. Behavioral assays were performed during the light cycle between 10 am-5 pm. Open field and elevated plus maze testing was performed in ad libitum fed mice with one exception.
To perform elevated plus maze tests mice were initially placed into the closed arm of the elevated plus maze arena. The arena consisted of 2 50 cm long arms. One arm was enclosed by walls while the other arm was open. Activity in the maze was recorded for five minutes using animal tracking software (ANYmaze, Stoelting). Latency to enter the open arms, total distance traveled, entries to open arms, time in open arms, and distance traveled in the open arms was automatically calculated using tracking software. Treatment schedules for the elevated plus maze were identical to those described for the open field test.

Assay [2] addresses T1, MC3R. The assay can be described thus: Novelty suppressed feeding test. The class given is in vivo, mice. To be noted: i.c.v., NSF test. As to the method: as §1
Prior to testing, mice were fasted overnight (6 pm-10 am). NSF testing was performed in the open field arena described above. Briefly, a single pellet of food (3-4 grams) was placed in the center of the open field. Mice were placed in the corner of the open field and their activity was automatically scored for ten minutes using animal tracking software. Latency to eat the food was manually recorded during testing. Feeding was scored as five consecutive seconds of chewing on the food.

Assay [3] has as its system AgRP neurons. Description: Feeding after MC3R agonist with chemogenetic (hM4Di) inhibition of AgRP neurons. The assay is classed as in vivo, mice. As to the method: FIG. 7. […] Either saline or CNO (1 mg/kg, i.p.) was administered fifteen minutes prior to i.c.v. injections. […] Data represented as mean+/−s.e.m.
A and B: Schematic of experimental strategy to express inhibitory DREADD virus in hypothalamic AgRP neurons (A) and representative image of DREADD transduced AgRP neurons (B). Scale bar, 200 um. C: Food intake following administration of C18 in the presence of saline or CNO (0.1 mg/kg, i.p.). […] D: RNAscope analysis of MC3R expression in WT and AgRP-MC3R KI mice. […] Scale bar, 500 um.
To inhibit AgRP neurons, the arcuate nucleus of AgRP-Cre mice was targeted with stereotaxic viral injections of Cre-dependent AAV viral vectors expressing the chemogenetic inhibitor hM4Di (FIG. 7).

In assay [4] the target is T1, MC3R. Description: Open field test. The assay is classed as in vivo, mice. As to the method:
as §1
Open field tests were performed as previously described (Refs. 55-57; herein incorporated by reference in their entireties). Mice were placed in the corner of a 50 cm×50 cm open field chamber. The center of the arena was marked as the 25 cm×25 cm area in the center of the open field. Exploratory activity was recorded for five minutes using ANYmaze software (Stoelting). Entries to the center, time in the center, distance in the center, and total distance traveled were automatically recorded with video tracking software. For PG992 experiments, mice were randomly assigned to receive either vehicle or PG992 injections. One week later the order of treatments was reversed such that each mouse received both vehicle and PG992 treatment in random order. For DREADD mediated assays, mice were administered CNO on the day of testing. Differences in open field activity between DREADD transduced mice and WT littermates were compared on testing day in response to CNO treatment. Similarly, MC3R KO and WT mice were testing in the open field on the same day in random order and differences in exploratory activity were calculated as previously described.

Assay [5] concerns the target T1, MC3R. The assay can be described thus: MC3R agonist feeding assays (food intake, body weight) in WT mice. The assay is classed as in vivo. As to the method:
Clozapine-N-Oxide (CNO) was purchased from Enzo Life Sciences. On the day of experiments fresh stock CNO (1 mg/0.1 ml) was prepared in water. CNO was administered via i.p. injections (200 ul Saline; 1 mg/kg). […] (5 ug; 500 nl DMSO).
Behavioral assays were performed on ad libitum fed mice. Mice were single caged for at least one week prior to starting feeding assays. Feeding assays were performed during the light period.
For peripheral administration of MC3R agonist compounds, mice were first habituated to vehicle injections (i.p.; saline in 10% DMSO; 200 ul) for 2-4 consecutive days. Following habituation and consecutive days of stable food intake in response to vehicle injections, agonist compounds were administered (i.p.; 10 mg/kg; saline in 10% DMSO). Food intake was measured following drug or vehicle administration by carefully removing food from the food hopper and weighing on a scale. Cages were changed daily during acute feeding assays to prevent spillage of food from the food hopper.
(§2) For central administration of MC3R agonist compounds we first administered vehicle injections (500 nl DMSO) for 2-4 consecutive days to habituate mice to handling and injection. […] Body weight was measured daily immediately prior to injections.

For assay [6], the system named is MC3R KO mice. Description: Feeding after i.c.v. administration in MC3R KO mice. The assay is classed as in vivo. As to the method: FIG. 13. […] Data shown as mean+/−s.e.m. Panels A and B analyzed with Student's paired t-test. n=9 mice for panels A and B.
B: 24-hour food intake following administration of vehicle (aCSF) or C18 to WT mice. […] C: Change in BW following injection of vehicle or C18 (5 ug). D and E: Cumulative food intake (D) and 24-hour food intake (E) following C18 or vehicle administration in MC3R KO mice. […] F: Cumulative food intake following administration of the MC3R antagonist C11 or vehicle. […] G: 24-hour food intake in WT mice following administration of C11. H: Change in BW following injection of vehicle or C11 (5 ug). I and J: Food intake following i.c.v. injection of vehicle (DMSO, 500 nl) or C11 (5 ug, 500 nl) in MC3R KO mice. […] Data represents mean+/−s.e.m. […] Panels B, C, G, H, and J analyzed with unpaired Student's t-test. n=7 mice and n=8 mice for vehicle and C18 groups in panels A-C. n=19 mice for panels F and G. n=6 mice for vehicle and n=8 mice for C11 group in panel H. n=12 mice for vehicle and C18 group in panels D and E. n=8 mice for vehicle and C11 groups in panels I and J.
as §2

Setting [7] is: 5 ug, i.c.v., elevated plus maze.
The mark [8] stands for this setting: i.c.v. 5 ug in 500 nl DMSO vs vehicle.

The results in this text go back to patent US20220313789A1, “TARGETING MELANOCORTIN 3 RECEPTOR FOR TREATMENT/PREVENTION OF EATING, METABOLISM, AND/OR EMOTIONAL DISORDERS” (The Regents of the University of Michigan, priority 2019, published 2022).

Entries after “also recorded” stand apart in the source; their conditions may differ. Bridge positions count the residues as written; N and C are the ends. Square brackets hold non-standard residues; d marks the D form. d2Nal = N[C@H](Cc1ccc2ccccc2c1)C(=O)O; Nle = CCCC[C@H](N)C(=O)O

T1 sequence (P33033 whole entry): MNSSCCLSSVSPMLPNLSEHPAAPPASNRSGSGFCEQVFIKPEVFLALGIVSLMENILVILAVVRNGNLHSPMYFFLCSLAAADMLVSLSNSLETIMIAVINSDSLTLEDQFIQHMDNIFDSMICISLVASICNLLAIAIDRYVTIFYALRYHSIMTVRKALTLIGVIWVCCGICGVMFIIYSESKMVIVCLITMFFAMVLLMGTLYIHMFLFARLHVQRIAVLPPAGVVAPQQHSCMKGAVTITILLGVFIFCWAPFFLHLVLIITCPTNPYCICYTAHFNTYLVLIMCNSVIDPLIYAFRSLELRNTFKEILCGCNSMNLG

As to “Ac-Nle-c[Asp-Trp-Pro-DNal(2′)-Arg-Trp-Lys]-NH2 (Ac-[Nle]DWP[d2Nal]RWK-NH2; lactam 2-8) [PG992]”, in assay [1] (setting [7]), the “Entries to the open arms” value is “trended towards being higher; also recorded: entered the open arms more frequently”, the “distance traveled in the open arms” value is “increasing distance traveled in the open arms; also recorded: traveled more distance in the open arms”, the “latency to enter the open arms” value is “decreasing latency to enter the open arms; also recorded: entered the open arms faster” and the total distance traveled result is “increased total distance traveled in the elevated plus maze”. Also, in assay [2], the distance traveled result is given as “without significantly effecting total distance traveled; also recorded: did not affect distance traveled”, the latency to eat result is “decreased latency to feed; also recorded: reduced latency to eat” and the total time eating result is “increased total time eating”. Also, in assay [3] (CNO (1 mg/kg, i.p.) before PG992 5 ug i.c.v., hM4Di in AgRP neurons), the “PG992 induced stimulation of food intake under AgRP neuron inhibition” value is “significantly reduced the ability of PG992 to stimulate feeding; also recorded: significantly reduced in the presence of AgRP neuron inhibition”. The “4-hour, 8-hour and 24-hour food intake” value in assay [3] (PG992 5 ug i.c.v., saline or CNO (1 mg/kg, i.p.) fifteen minutes before) is “robustly stimulated food intake at 4 hours, 8 hours, and 24 hours; also recorded: increased food intake following both saline and CNO injections at all time-points”. In assay [4] (5 ug, i.c.v.), the “distance traveled in the center” value was “increased the distance traveled in the center; also recorded: increased distance traveled in the center”; the “entries in the center” value was “increased entries to the center; also recorded: increased distance traveled in the center and entries in the center”; the “latency to enter the center” value is given as “decreased the latency to enter the center; also recorded: reduced latency to enter the center of the arena”; the total distance traveled result is recorded as “Total distance traveled was also increased”. In addition, the anxiolytic activity entry in assay [4] (ICV, elevated plus maze, and novelty suppressed feeding assay) is reported as “clear anxiolytic activity”. Further, in assay [5] (3 days of treatment), the weight gain is recorded as 8%. The “24 h food intake” value in assay [5] (PG990 series of peptides, route not given in the sentence) is listed as “increases 24 h food intake”. Further, the “stimulation of food intake” value in assay [5] (central injection (i.c.v.), 5 μg) was approximately 50%. Also, the “24-hour food intake compared with chemogenetic (DREADD) neuron activation” value in assay [5] (i.c.v. PG992 vs CNO/hM3Dq) is “increased 24-hour food intake to a greater extent than chemogenetic activation of AgRP neurons; also recorded: even more potent inducer of 24 h food intake than DREADD activation of MC3R ARC neurons; also recorded: produced a greater change in 24-hour food intake than AgRP neuron activation”. Also, the “Feeding in response to central administration” value in assay [5] (i.c.v., 5 ug in 500 nl DMSO, vs vehicle) is “acutely stimulated feeding at all measured time-points”. Also, the “Food intake at 4 and 24 hours” value in assay [5] (i.c.v., 5 ug, single injection) is “increased food intake at both 4 hours and 24 hours post injection”. The “increase in body weight each treatment day” value in assay [5] (once daily i.c.v. injections) is recorded as 2-3%. Further, the Daily food intake entry in assay [5] (once daily i.c.v. injections (5 ug)) is “increased daily 24-hour food intake on each day of treatment”. The “duration of food intake stimulation” value in assay [5] (single i.c.v. injection) is “at least 24 hours”. Also, in assay [6] (setting [8]), the 24-hour food intake result is reported as “No significant difference in 24-hour food intake” and the Acute food intake result is recorded as “No significant difference in food intake”. Also, in assay [6] (icv), the body weight result was “no activity on food intake or body weight” and the food intake result was “no activity on food intake or body weight; also recorded: No effect on food intake”.

Regarding “Ac-Arg-Arg-(pI)DPhe-Tic-NH2 [compound 18]”, in assay [3] (C18, CNO 0.1 mg/kg, i.p., inhibitory DREADD in AgRP neurons), the “Food intake in the presence of saline or CNO” value was “increased food intake following administration of saline but not following CNO mediated inhibition of AgRP neurons”. The “Food intake, cumulative/acute and 24-hour” value in assay [6] (i.c.v. 5 ug vs vehicle) is on record as “No difference in food intake was detected following C18 administration”.

Turning to “H-Tyr-Val-Met-Gly-His-Phe-Arg-DTrp-Asp-Arg-Phe-Gly-OH [D-Trp8-γ-MSH]”, in assay [1] (single peripheral injection), the “anxiety in the elevated plus maze assay” value is on record as “trend towards reduction of anxiety”.
